Test results published in US20210009673A1, “METHODS FOR REGULATING BREAST CANCERS” (priority 2018, published 2021).

What was measured:
β-catenin = test: tyrosine phosphorylation of β-catenin in PTN-stimulated U87MG cells; assay type: cell-based, human; details: control U87MG cells; 50 ng PTN/ml
Procedure: FIG. 1: FIG. 1 illustrates in (A) PTN stimulation of tyrosine phosphorylation of β-catenin in cells that express RPTPβ/ζ and ALK. COS7 cells transiently expressing ALK and RPTPβ/ζ were stimulated with 10 ng PTN/ml. Cell lysates were prepared and used to immunoprecipitate β-catenin. The immunoprecipitates were analyzed in Western blots probed with anti-phosphotyrosine antibodies. Lane 1, cells transfected with ALK that were not stimulated with PTN. Lane 2, cells transfected with ALK stimulated with PTN. Lane 3, cells transfected with empty vector not stimulated with PTN. Lane 4, cells transfected with empty vector stimulated with PTN. […] The immunoprecipitates were analyzed in Western blots probed with anti-phosphotyrosine antibodies. […] Cell lysates were used to immunoprecipitate β-catenin and the immunoprecipitates were analyzed in Western blots probed with anti-phospho-tyrosine antibodies and reprobed with anti-β-catenin antibodies. […] MCF-7 cells that stably express EGFR/RPTPβ/ζ not transfected with ALK were analyzed as above. […] Lysates of MCF-7 cells and lysates of MCF-7 cells stimulated with EGF were used to immunoprecipitate β-catenin and the immunoprecipitates were analyzed in Western blots probed with anti-phospho-tyrosine antibodies and separately with anti-β-catenin antibodies. […]

Akt = test: phosphorylation of Akt in PTN-stimulated HUVS cells; assay type: cell-based, human; details: PTN 50 ng/ml, 5 minutes, elevated at 20 minutes
Procedure: FIG. 11: FIG. 11 illustrates: human umbilical vein stromal cells not stimulated or stimulated with 50 ng/ml of PTN for 2, 5, 10 or 20 minutes were used to prepare cell lysates that were analyzed in Western blots probed with anti-phospho threonine 308 Akt (panel A), anti-phospho serine 473 Akt (panel B), anti-phospho-serine 9 GSK3β (panel C), anti-phospho-serine 33, 37 and […] β-catenin (panel D) or anti-actin antibodies (panel E). Akt was immunoprecipitated from those lysates using anti-Akt antibodies, incubated with a fusion peptide containing the 20 N-terminal amino acids of GSK3β and analyzed in Western-blots probed using anti-phospho-serine 9 GSK3β antibodies (panel F).
To pursue this pathway of nuclear import of β-catenin, HUVS cells were stimulated with PTN (50 ng/ml), lysed, and analyzed in Western blots probed with anti-phosphothreonine 308 Akt or anti-phosphoserine 473 Akt antibodies (FIG. 11, panel A and B). […]
The association of adaptor proteins that associate with specific phosphorylated sites in activated EGFR are responsible for the activation of phosphatidyl-inositol 3-kinase (PI3K). […] The cells were stimulated with PTN for 2, 5, 10, and 20 minutes, cell lysates were prepared, and the lysates were analyzed in Western blots probed with anti-phospho-Akt (Ser473), anti-phospho-GSKβ (Ser9), and anti-phospho-β-catenin (Thr42) antibodies. […]

B1: pleiotrophin (protein, UniProt P21246 33-168, looked up)
Pleiotrophin: GKKEKPEKKVKKSDCGEWQWSVCVPTSGDCGLGTREGTRTGAECKQTMKTQRCKIPCNWKKQFGAECKYQFQAWGECDLNTALKTRTGSLKRALHNAECQKTVTISKPCGKLTKPKPQAESKKKKKEGKKQEKMLD
- phosphorylation of β-catenin (β-catenin): sharply increased
- phosphorylation of Akt threonine 308 and serine 473 (Akt): rapid increase
